Assay [1] addresses T1, FcγRIa extracellular domain with C-terminal His tag (human, UniProt P12314 16-292).
T1 construct: extracellular domain; soluble analyte in Biacore; also called FcgRI; not shown: His tag at the C terminus
In words: SPR, binding relative to GpH7-A5/GpH7-B3/GpL16-k0 = 100.

The target in assay [2] is T2, FcγRIIb extracellular domain with C-terminal His tag (human, UniProt P31994 43-217).
T2 construct: extracellular domain; soluble analyte in Biacore; also called FcgRIIb; not shown: His tag at the C terminus
T2 sequence (looked up): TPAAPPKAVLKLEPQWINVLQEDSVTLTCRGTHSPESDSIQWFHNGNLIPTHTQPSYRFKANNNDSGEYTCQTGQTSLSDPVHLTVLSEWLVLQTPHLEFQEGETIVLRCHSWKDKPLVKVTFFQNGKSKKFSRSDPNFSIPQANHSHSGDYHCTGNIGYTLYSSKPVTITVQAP
Described as above.

Assay [3] deals with T1, FcγRIa extracellular domain with …. As to the kind of experiment: SPR; He/Con_1a divided by He/Con_2b (FcγRIa against FcγRIIb). How it is done:
(§1) The heterodimerized antibodies He Abs in which one of the H chains was introduced with an alteration were assayed for their binding activities to each activating FcγR and inhibitory FcγR according to the method described in Example 4. […] The activating FcγRs in FIGS. 26, 27, 28, and 29 are FcγRIa, FcγRIIa (R), FcγRIIa (H), and FcγRIIIa, respectively.
(§2) Analysis of interaction between objective antibody and the FcγR was carried out using Biacore T100 (GE Healthcare). HBS-EP+ (GE Healthcare) was used as the running buffer, and the measurement temperature was set to 25° C. Chips produced by immobilizing the antigen peptide by the amine coupling method to a Series S Sencor Chip CM5 (GE Healthcare), or alternatively, chips produced by allowing preliminarily biotinylated antigen peptides to interact with and immobilize onto a Series S Sensor Chip SA (certified) (GE Healthcare) were used. Antibodies of interest were captured onto an antigen peptide-immobilized chip, and allowed to interact to each FcγR diluted with running buffer. To regenerate and repeatedly use the chip, the antibodies captured on the chip were washed off by reacting 10 mM glycine-HCl, pH 1.5.
Background: Surface plasmon resonance follows binding to a sensor surface in real time, without labels.

Assay [4] concerns the target T3, FcγRIIa H (human, UniProt P12318 34-217).
T3 construct: extracellular domain; also called FcgRIIa H; 2aH; not shown: His tag attached to the C terminus
T3 sequence (looked up): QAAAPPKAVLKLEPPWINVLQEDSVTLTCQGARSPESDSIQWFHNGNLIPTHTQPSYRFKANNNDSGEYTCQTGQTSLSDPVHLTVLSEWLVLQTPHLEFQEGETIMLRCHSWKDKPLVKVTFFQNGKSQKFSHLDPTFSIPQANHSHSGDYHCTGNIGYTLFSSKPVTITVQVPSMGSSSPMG
As to the kind of experiment: SPR; He/Con for FcγRIIa H divided by He/Con for FcγRIIb.

The target of assay [5] is T3, FcγRIIa H. In words: SPR (Biacore), antibody captured on antigen peptide chip, FcγR as analyte; relative binding activity. The procedure:
as §1, §2

Assay [6] addresses T4, FcγRIIb (human, UniProt P31994 43-217).
T4 construct: extracellular domain; also called FcgRIIb; 2b; not shown: His tag attached to the C terminus
T4 sequence (looked up): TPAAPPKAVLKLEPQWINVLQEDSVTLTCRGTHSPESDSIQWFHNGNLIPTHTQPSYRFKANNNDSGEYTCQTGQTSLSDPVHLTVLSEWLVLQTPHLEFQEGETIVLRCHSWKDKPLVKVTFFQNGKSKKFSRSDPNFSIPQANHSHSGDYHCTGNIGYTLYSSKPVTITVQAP
The description is as above. How it is done:
as §1, §2

T1 sequence (P12314 16-292): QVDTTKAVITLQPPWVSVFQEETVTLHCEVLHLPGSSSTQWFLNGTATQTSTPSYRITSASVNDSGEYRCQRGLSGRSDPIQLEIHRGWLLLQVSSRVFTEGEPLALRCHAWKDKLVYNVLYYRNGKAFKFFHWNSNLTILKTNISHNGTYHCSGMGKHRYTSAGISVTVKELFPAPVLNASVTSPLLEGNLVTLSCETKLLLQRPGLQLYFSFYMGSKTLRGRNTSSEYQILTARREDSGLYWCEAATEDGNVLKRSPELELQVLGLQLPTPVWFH

B1: GpH7-A5/GpH7-B3 variant P271_03V/GpL16-k0 (antibody, human IgG1, kappa)
heavy 1: not shown
heavy 2: not shown
light: DIVMTQSPLSLPVTPGEPASISCQASESLVHSNRNTYLHWYLQKPGQSPQLLIYKVSNRFSGVPDRFSGSGSGTDFTLKISRVEAEDVGVYYCSQNTHVPPTFGQGTKVEIERTVAAPSVFIFPPSDEQLKSGTASVVCLLNNFYPREAKVQWKVDNALQSGNSQESVTEQDSKDSTYSLSSTLTLSKADYEKHKVYACEVTHQGLSSPVTKSFNRGEC
notes: change in the GpH7-B3 H chain only; also called He Ab
In the case of B1, the He/Con_1a in assay [1] is 102 % of control. Further, the He/Con_2b in assay [2] was 74.8 % of control. Further, the “He_1a/2b (Ia/IIb)” value in assay [3] is 1.37 ratio.

B2: GpH7-A5/GpH7-B3 variant D265_02A/GpL16-k0 (antibody, human IgG1, kappa)
heavy 1: not shown
heavy 2: not shown
light: DIVMTQSPLSLPVTPGEPASISCQASESLVHSNRNTYLHWYLQKPGQSPQLLIYKVSNRFSGVPDRFSGSGSGTDFTLKISRVEAEDVGVYYCSQNTHVPPTFGQGTKVEIERTVAAPSVFIFPPSDEQLKSGTASVVCLLNNFYPREAKVQWKVDNALQSGNSQESVTEQDSKDSTYSLSSTLTLSKADYEKHKVYACEVTHQGLSSPVTKSFNRGEC
notes: Heterodimerized anti-glypican-3 IgG1; mutation in one H chain only; also called He Ab
For the molecule B2, the “He_2aH/2b (IIaH/IIb)” value in assay [4] was determined as 1.58 ratio. Further, the He/Con_2aH in assay [5] is 31.3 % of GpH7-A5/GpH7-B3/GpL16-k0 (=100). Further, the He/Con_2b in assay [6] is 19.9 % of GpH7-A5/GpH7-B3/GpL16-k0 (=100).

B3: GpH7-A5/GpH7-B3 variant D265_07I/GpL16-k0 (antibody, human IgG1, kappa)
heavy 1: not shown
heavy 2: not shown
light: DIVMTQSPLSLPVTPGEPASISCQASESLVHSNRNTYLHWYLQKPGQSPQLLIYKVSNRFSGVPDRFSGSGSGTDFTLKISRVEAEDVGVYYCSQNTHVPPTFGQGTKVEIERTVAAPSVFIFPPSDEQLKSGTASVVCLLNNFYPREAKVQWKVDNALQSGNSQESVTEQDSKDSTYSLSSTLTLSKADYEKHKVYACEVTHQGLSSPVTKSFNRGEC
notes: as for B2
In the case of B3, the “He_2aH/2b (IIaH/IIb)” value in assay [4] amounted to 2.35 ratio. Further, the He/Con_2aH in assay [5] is 3.1 % of GpH7-A5/GpH7-B3/GpL16-k0 (=100). Besides, the He/Con_2b in assay [6] was 1.3 % of GpH7-A5/GpH7-B3/GpL16-k0 (=100).

B4: GpH7-A5/GpH7-B3 variant P271_06M/GpL16-k0 (antibody, human IgG1, kappa)
heavy 1: not shown
heavy 2: not shown
light: DIVMTQSPLSLPVTPGEPASISCQASESLVHSNRNTYLHWYLQKPGQSPQLLIYKVSNRFSGVPDRFSGSGSGTDFTLKISRVEAEDVGVYYCSQNTHVPPTFGQGTKVEIERTVAAPSVFIFPPSDEQLKSGTASVVCLLNNFYPREAKVQWKVDNALQSGNSQESVTEQDSKDSTYSLSSTLTLSKADYEKHKVYACEVTHQGLSSPVTKSFNRGEC
notes: as for B1
Consider B4, for which the He/Con_1a in assay [1] was 102 % of control. The He/Con_2b in assay [2] was 77.5 % of control. For the same molecule, in assay [3], the “He_1a/2b (Ia/IIb)” value came to 1.32 ratio.

B5: GpH7-A5/GpH7-B3 variant P271_20W/GpL16-k0 (antibody, human IgG1, kappa)
heavy 1: not shown
heavy 2: not shown
light: DIVMTQSPLSLPVTPGEPASISCQASESLVHSNRNTYLHWYLQKPGQSPQLLIYKVSNRFSGVPDRFSGSGSGTDFTLKISRVEAEDVGVYYCSQNTHVPPTFGQGTKVEIERTVAAPSVFIFPPSDEQLKSGTASVVCLLNNFYPREAKVQWKVDNALQSGNSQESVTEQDSKDSTYSLSSTLTLSKADYEKHKVYACEVTHQGLSSPVTKSFNRGEC
notes: as for B1
As for B5, in assay [1], the He/Con_1a is 103 % of control. The He/Con_2b in assay [2] was 58.1 % of control. The “He_1a/2b (Ia/IIb)” value in assay [3] was determined as 1.77 ratio.

B6: GpH7-A5/GpH7-B3 variant P271_16H/GpL16-k0 (antibody, human IgG1, kappa)
heavy 1: not shown
heavy 2: not shown
light: DIVMTQSPLSLPVTPGEPASISCQASESLVHSNRNTYLHWYLQKPGQSPQLLIYKVSNRFSGVPDRFSGSGSGTDFTLKISRVEAEDVGVYYCSQNTHVPPTFGQGTKVEIERTVAAPSVFIFPPSDEQLKSGTASVVCLLNNFYPREAKVQWKVDNALQSGNSQESVTEQDSKDSTYSLSSTLTLSKADYEKHKVYACEVTHQGLSSPVTKSFNRGEC
notes: as for B1
As to B6, in assay [1], the He/Con_1a was 102 % of control. Also, the He/Con_2b in assay [2] was 67.9 % of control. The “He_1a/2b (Ia/IIb)” value in assay [3] amounted to 1.5 ratio.

B7: GpH7-A5/GpH7-B3 variant P271_15Y/GpL16-k0 (antibody, human IgG1, kappa)
heavy 1: not shown
heavy 2: not shown
light: DIVMTQSPLSLPVTPGEPASISCQASESLVHSNRNTYLHWYLQKPGQSPQLLIYKVSNRFSGVPDRFSGSGSGTDFTLKISRVEAEDVGVYYCSQNTHVPPTFGQGTKVEIERTVAAPSVFIFPPSDEQLKSGTASVVCLLNNFYPREAKVQWKVDNALQSGNSQESVTEQDSKDSTYSLSSTLTLSKADYEKHKVYACEVTHQGLSSPVTKSFNRGEC
notes: as for B1
In the case of B7, in assay [1], the He/Con_1a is 103 % of control. Moreover, the He/Con_2b in assay [2] is 52.3 % of control. The “He_1a/2b (Ia/IIb)” value in assay [3] amounted to 1.97 ratio.

Source of the values: patent US20150344570A1 (published 2015).
